Paper PMC4717663

Molecular target: soluble αVβ3 headpiece (human) (UniProt P06756)
Assay: fluorescence polarisation

fold-lower affinity than for αVβ6: 1000 fold
Substance: nonapeptide containing RGD from pro-TGF-β3
